From the DeepSol protein solubility set

experiment: soluble on expression in E. coli; label from the status in PepcDB or PDB records

Soluble on expression in E. coli, soluble:
MAQVMYATPDNMLSRFGEQDLTLLTEREDSVPGEINLALLEQALSDASAEIDGYIAGRYVLPLTTVPAVLERNCCDIARYFLYGDKAPEQVEKRYAAVVKFLTAVSKGDISLGLATTGETADQSELVISIESAGSVFGRKSAKGFI
MASEDKFESVLSTRYCKNSPLVSILSETNKATLWRQLWIWLAEAEKELGLKQVTQDAIDEMKSNRDVFDWPFIRSEERKLKHDVMAHNHAFGKLCPTAAGIIHLGATSCFVQDNADLIAYRDSIDHILKRFATVIDRLAAFSLKNKEVVTVGRTHYQTASLVTVGKRGVLWAQELLMAFQSLSEFRDKMRFRGIKGATGTQDSFLTLFAGDESKVEALDELVTKKANFSNRFLITGQTYSRQQDSQLVFSLSLLGAAAKKVCTDIRVLQAFGELLEPFEKDQIGSSAMPYKKNPMKSERCCALSRKLINAPQEALTILADQGLERTLDDSAGRRMLIPDVLLTAEALLTTLQNIFEGLSVQTDNVKKIVEDEIAFLGLEKAMMMLTEEGVDRQQAHAVIRKTALEAKQLQATQKVDIRQTMADPFFDSVRDRVVGLVNNPINFTGRCVSQTESFIAKELKPTIDKYLDKSAGNVQLDV
MLENRLYKRSDFWKLFSRKYKLTKTIEHMMIDSIDIQENDRILEIGIGNGTVFKSITKKLKKGSLKSIDPSKRKVRQISRANRKNMGNGEVFHGYPEDIPFDDRTFNKVFSLHTVQSCTDIRLALREIYRVLQIDGRFYISIDTNTGEKEKTYIQLLKDQHFRDLSVIRRASCLCIVAVKLEHHHHHH
MSLSDNDLQRRILDAVDAGFDAQLATTRDFVAIPSTRGAEGPCQDMIGDLLRQRGYEVDDWHIDLDDLKDLRGYGPIEHDFSKARTVVGTYRPSTNAGRSLILQGHCDVVPAGPLEMWDTPPFSPVIKQGRMYGRGACDMKSGTIGALYALDAIKAAGLRPTGRIHFQSVIEEESTGVGALSTLQRGYRADACFIPEPTGGKMVRSQVGVIWFRLKVRGYPVHVATAGTGSNAITAAYHLIDALGKLEEEWNRRAASDPHFKTLAHPINFNPGIIKGGDWASSVPAWCDVDCRIAILPGWSVADHQAEILACVSAAARDHRFLSNNPPQVEWSGFLSEGYELKNAAEPEAAFGKAYQAVYGSEVEDLVFTALTDTRFYGLNYNIPSLCFGASGEAMHGFNEYIDLESLRQSTKATALFIAEWCGVEPAEGHHHHHH
MADSELQSAIGNNEECVNLFSDCDNVFVVAGISPLIDFQNNLNRIENYLCQKKIVGVKLYPGHEQFYLNDPRLESVFLLCEAFDVPVAVHTGWDNPHFNAPALFADIAGKHPKLKIVNCHLWYPKIDYCYEVTRDYQNIYYDISSLADDKGNKSKITEVLHRIANENPHRLIFGSDYGMCDPMAHIELVDRLPVSDETREMIFYKNAVGLYGLSRING
MSNTVTLRADGRLFTGWTSVSVTRSIESVAGYFELGVNVPPGTDLSGLAPGKKFTLEIGGQIVCTGYIDSRRRQMTADSMKITVAGRDKTADLIDCAAVYSGGQWKNRTLEQIARDLCAPYGVTVRWELSDKESSAAFPGFTLDHSETVYEALVRASRARGVLMTSNAAGELVFSRAASTATDELVLGENLLTLDFEEDFRDRFSEYTVKGYARANGAEGDDIDAKSIVSRKGTATDSDVTRYRPMIIIADSKITAKDAQARALREQRRRLAKSITFEAEIDGWTRKDGQLWMPNLLVTIDASKYAIKTTELLVSKVTLILNDQDGLKTRVSLAPREGFLVPVESDRKNRKGGDSNGGIDALVEDYYRRHPEKTPPWKE
MSLYQAIVFFDLDSTLFDDNKHVLPASVAAIHEMQQHHILPVIATGRNIFEIQYVLDGTGIDSVVGANGSYVQYQGQRLAAAVIAPELLTAVTSFAQRQHDPIAYYTSQGFRLSQANADTTENFQLLRLHPIVDPAWYATHQINFLNVFNRDHDQLYQEKFSGQLTFVRNNPRCLDTMVNGVTKQSGIRTLIQQAGLQGIKTYAFGDGYNDLQMFDEVDVPISMGNGVAAAKEKAAYVTTTNTTDGIVRGLRHFGLIQEGHHHHHH
MLFATSGSGSMLQSWNLKTSKRTGSFDAKSSINAVAISPDGNTLATGIRDNAIKLWNINDGKLIHTLTGHQGQVRTVAFSPDGTLLASGSSDGTVKLWNATTGKEINTFTAHKEQVWSVAFNPDGKTLASTGQDGSVKIWGVSPQLEHHHHHH
MEPKLSKDTIIAAAFSLLEKSPTLEQLSMRKVAKQLGVQAPAIYWYFKNKQALLQSMAEAIEEHFQEPALCGEWYSDLLAFMENYYDLYQQFPCAVAIEIQTVPAYPQRLRHLNQMMGILREAGFSPEMTHLAVTSLQHLLFGMIMDATEEKQLVSQVLNGDDYLKEQVLHMKQYVSDNELTYMEESIQFRHSIHQKSAFIQAVKTYLDGLQADNTSSSK
MNTTPLVIGAYAALPATRADQETFYDRLHADLEATGLELPFRDSIHDDPAWLASQLAGRFTDSIITAIPGTMMRVWDGGTFGLASPDDDGRNAAIAFTRSIIDSARALDDAAGHRVIAGIHIHSAPSVTANRDQFLRSLTELLEGMDNDDPRLIIEHCDRYNEAVTGEKRFLSIEQEIAIAKETGIGITVNWGRSAMEAYDTQLPARHIQALVAEGVFEGVMFSGAGDKENTFGAAWADLHLPHHVDEPASLMDDDRIAECLSAAGGAQKYHGAKIQAPADVDVATRVTMLGHITRHLR

Soluble on expression in E. coli, not soluble:
MGGAERVMATLANEFVKRGHQVRLVTLKKAVSAYELDKRVEFIGGGADINSGNFLIKRIQMISAVIKGTLFYRRQLREYKPDIILSFLTYTNLLSVINNRISRVKYPVVVSERCDPRKRSKLLIKLCNIVYPLADCIVCQSKVIQDYFLNKNPKSVTKVIPNPVNEECINKEEIIKRRKLIVAVGRLSNQKNYDLLIDAFSDIANEYSEYRLEIYGEGPERERLQKKINRLGLNDRIQLMGTKTNVMKHIADAQLFVMSSNFEGFPNALAEAMASGLPVISTNFPSGVAKELIIDGENGYVVDINNREQMADAMRKILGDPLTITKMSKNNVLLREKLNVKTVANMWENLFNDILEKRTKNEKN
MNSLVRRSAQQLSLWRTYCIKHNASEAASPGRNAGRPNYEEFIGRHQRQAQCSIVVQVSSEKSYEELYNYCSSFGSIMGAHHYCVRQDETLHYILLEYATSDEAAAAIGAGVTNGELSGVPVRSPFLWFRAAGGGRRSPKLVANTAPALLSLDGTRQVDQRHLLGLLRGAADIEEQVQQLYEHTRLNELGIRMRFLAALQVQQAIAGMFPAAQAQPFGSSVNGFGRMGCDLDLILRFDSDMGAKIPLEAAVPSRLVYHTKENLSNGRSQTQRHMECFGDMLHLFLPGVCHVRRILQARVPIIKYHHEHLDLEVDLSMSNLTGFYMSELLYMFGEMDPRVRPLTFTIRRWAQTCGLTNPSPGRWISNFSLTCLVMFFLQQLRQPILPTIGALAKAAEPGDSRVTEDGINCTFTRNVDRLGFRSRNQSSLSELLLQFFEFYSQFDFHNRAISLNEGKPLSKPDHSAMYIVNPLEQLLNVSKNVSLEECERLRIEVRNAAWVLESEVENASVPEGDGQELSCGLLNLFKHPEKAVIRPNMFFKPRMVEVSDLFEQKEAGATSSSTPPTPAITYKSASVRQQVQSIKAATRSELKQLRGSGSSVPTSSPNNRRRS
MAHHHHHHMGDNIEKRYSLALYNVGKKNKKINEITSDILFIKNNFLKDKSFLNFLHTPNIESREKLNFLKTECKKYNNNFSPITSNFLESLFDSKRIKFLQKIIEEFELLLMKERKEIKCVVYTAKEINNNEKQKIQESILFKLKNELKPLIEYKIDKSILGGLVLQIGNQVFDFSAKYKIEKIRSTLS
MGGLDKMSVEKKLLLDVKDLKVHFNITPKSAWPWTKPVTLKAVDGVNVRLYEGETLGVVGESGCGKSTFARAIIGLVQATHGEVVWLGQDLTRMQEVKRRATRKQIQMIFQDPLASLNPRMTVGDIIAEPLQTFYPELSKQEVKDRVKEMMAKVGLLPNVINRYPHEFSGGQCQRIGIARALILKPKMIICDEPVSALDVSIQAQVVNLLKELQKELGLSLVFIAHDLSVVKHISDRVLVMYLGNAVELGVSKELFANPKHPYTKALMSAVPIPDPNIERNKTIQMLEGDLPSPMNPPSGCVFRTRCPQATAECAKTKPVIKGSDIHSVSCLYAEA
MENNPFQRTEKIDISWCPGCGNFAIKASLSNALSKLNLKPQNVAIISGIGQAGKMPHYMFVNGFHTLHGRAIPAATAVKATNPELTVIAEGGDGDMYAEGGNHLIHAIRRNPNITVLIHNNQIYGLTKGQASPTTLVSTKTPTQPWGVFEEPLNPIALAISLNASFVARTFSGNLEKTEEIIIKAINHKGLSIVDIFHPCPSFNKVNTLQWYNENTYFLEDHDVTDRKKAFEKALQTEKYPLGIFYTCEKPVFEEVVPPYISEKTPIWKREPDLEKIEEIINSKRT
RESLGRDVMVVVDLSGSMAEQDFVSKQSSDLGAVKKISRLEATKEVLADFVKTRKGDRLGLILFGDAAFVQTPFTADQSVWLELLNQTDVAMAGQSTHLGDAIGLAIKVFEQSSEDKASAEENAKPREKVAIVLTDGNDTGSYVEPIDAAKVAAAKDVRIHMIAMGDPRTVGEQALDMNIINRVAKESGGKAFQAINRDELEQAYDEIGELEPQLYE
MSLSESVIADFVGKFNSEVAGRGDPIRGRVVLSQKRLVLAASEDDKLTIPLDSIFDIAVGQVPPDLGDFFDSTVTIAFEHRGKRLVAAIEAGDEKIEKFGTVLFKAIINGTETTVKERARVGGRVTEESFKTAKLFLTPGNVEFRRSDGSFNVDLKTVSDFDRNTREINGKGRPVLTVRHMKDGTAMTTLAAMASNRKMSILGRYLRREYAELMEEIEDVDLTKDKKEVLVAMYSTGDMDGMPLASILGKDSSQVSMILQDLAADGLVQDGSDGPTLTPTGKVVASRHLEDVNAEGHHHHHH
MKDKKTISILGCGWLGLPLAEAFIQSGFRVKGSTTREERLSVIEAAGAEGYVLKADGGAWTGERLNDFLRCDILLIAIPPGTKRNANSTHAVEIGQLMDHIKKYSIAIKQLIYISSTSVYKNINSVVIESDTAIPSNIGNQILFQAEKHVHESVIERKLILRLGGLTGYDRMLGRFFAGKQELAGGNEPVNLVHRDDVVACILFLLKNGIGEQVFNICSPQHPSRKEFYTRLCDRFNLPEPH
MNILLTSATGYLGRAIAAAIQSKGHRVTALARSAATAQRLEAAGIQPCRGDLTDAVALQQAAAQADAVIHTAATNDAAMGLVDRQAVKTLLAAIAGTQKPFLYTSGLWVMGNTGATVADETFPLNPPALVAWRPAVEALVLSAADQGVRSIVIRPALVYGRGGGLLPMLMQAGQSQGAVPVIGAGDNAWSFIHIDDLAALYVAAIEQAPARTLLIGASGESVSMQQVALTIAKTLGLGDRLQHLTLEEARAIWGDLADALTLDQRVSGDRARQLLHWQPVAPGVFQELTQGSYATKAIAALEHHHHHH
MAEHNELGKAGENAAVAYLEEHGYLIRHRNWRKGHFELDIVAAKENELVIVEVKTRSNTLFAQPEEAVDLPKIKRTVRAADAYMKLFQIDVPVRFDIITVIGENGNFRIDHIKEAFYPPLF
MPELKVVVSIKQVPDVDELRIDPVTNNLVREGVPAVINPPDLHAIEEAVRLKERYGAKTIVITMGPPQADSALREALAMGIDEAYLISDRAMAGADTWATSYTISKAVQKLGGADLILFGRRAVDGETEQVGPQTGKWLGLPVIGYVSEIKSLEKDKIVVTRTTEFDEEVIEAPVPVVLTILEVANKPRQPDILSLIKAKTAKVTVWNKDDIKAEPNKIGLAGSPTKVIKVQPPPKTRKAEIIDGKKDVEKAAKWFLDKIFESLKE
